# According to patent US20260248940A1, “Antibody-Drug Conjugates and Uses Thereof” (Vivasor, Inc., priority 2023, published 2026):
# T1: human B7-H3 protein (human, UniProt Q5ZPR3 29-534)
# T1 construct: Endogenous B7-H3 on human cancer cell lines; also called CD276; B7-H3 receptor
# T1 sequence: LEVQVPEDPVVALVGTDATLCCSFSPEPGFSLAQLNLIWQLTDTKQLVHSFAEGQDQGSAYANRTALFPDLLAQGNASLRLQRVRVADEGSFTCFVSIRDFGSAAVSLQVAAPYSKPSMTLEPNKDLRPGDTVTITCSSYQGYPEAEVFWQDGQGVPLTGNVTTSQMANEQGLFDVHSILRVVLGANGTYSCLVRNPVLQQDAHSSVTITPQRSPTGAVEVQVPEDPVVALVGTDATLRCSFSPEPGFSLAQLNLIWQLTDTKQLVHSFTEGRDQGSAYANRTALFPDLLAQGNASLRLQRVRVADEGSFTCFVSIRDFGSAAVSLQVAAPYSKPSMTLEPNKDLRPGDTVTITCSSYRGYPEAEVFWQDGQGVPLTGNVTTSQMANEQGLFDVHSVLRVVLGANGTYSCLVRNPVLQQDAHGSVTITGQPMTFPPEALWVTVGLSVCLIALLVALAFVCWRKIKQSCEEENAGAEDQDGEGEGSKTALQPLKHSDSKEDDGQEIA
# Columns and labels:
# [1] = test system: U2OS (B7-H3+) cells; assay: Cell viability assay (CellTiter-Glo 2.0, 120-hour) in U2OS cells; format: cell-based; settings: Homo sapiens, Table 4A, B7-H3 positive, 120-hour treatment
# [2] = test system: Calu6 (B7-H3+) cells; assay: Cell viability assay (CellTiter-Glo 2.0, 120-hour) in Calu6 cells; format: cell-based; settings: Homo sapiens, Calu-6; Table 4A; Calu6, B7-H3 positive; 120-hour treatment
# [3] = test system: PA-1 (B7-H3+) cells; assay: Cell viability assay (CellTiter-Glo 2.0, 120-hour) in PA-1 cells; format: cell-based; settings: Homo sapiens; Table 4A; PA-1, B7-H3 positive; 120-hour treatment
# [4] = test system: NCI-H929 (B7-H3−) cells; assay: Cell viability assay (CellTiter-Glo 2.0, 120-hour) in NCI-H929 cells; format: cell-based; settings: Homo sapiens; Table 4A; NCI-H929, B7-H3 negative; 120-hour treatment
# [5] = test system: Hs700T (B7-H3+) cells; assay: Cell viability assay (CellTiter-Glo 2.0, 120-hour) in Hs700T cells; format: cell-based; settings: Homo sapiens, Hs 700T, Table 4A, B7-H3 positive, 120-hour treatment
# [6] = target: T1, human B7-H3 protein; assay: flow cytometry on FaDu cells, PE-labelled goat anti-human secondary antibody, geometric mean fluorescence
# Method: (§1) B7-H3 binding: Tumor cell cultures were harvested by non-enzymatic cell dissociation and plated in RPMI1640 supplemented with 10% fetal bovine serum (FBS) in a 96 well plate. A dilution curve of B7H3 antibody was prepared as a 2× solution and added to each well and incubated at 4C for 1 hour. The cells were washed with PBS+2% FBS+5 mM EDTA (FACS Buffer) before incubation with R-Phycoerythrin labeled goat anti-human secondary antibody for 1 hour at 4C. Cells were washed with FACS buffer and analyzed by flow cytometry.
# [7] = target: T1, human B7-H3 protein; assay: flow cytometry on U2OS cells, PE-labelled goat anti-human secondary antibody, geometric mean fluorescence
# Method: as §1
# [8] = target: T1, human B7-H3 protein; assay: flow cytometry on Hs700T cells, PE-labelled goat anti-human secondary antibody, geometric mean fluorescence
# Method: as §1
# [9] = target: T1, human B7-H3 protein; assay: flow cytometry on SkNBE(2) cells, PE-labelled goat anti-human secondary antibody, geometric mean fluorescence
# Method: as §1
# [10] = target: T1, human B7-H3 protein; assay: flow cytometry on HCT-116 cells, PE-labelled goat anti-human secondary antibody, geometric mean fluorescence
# Method: as §1
# [11] = target: T1, human B7-H3 protein; assay: flow cytometry on MDA-MB-231 cells, PE-labelled goat anti-human secondary antibody, geometric mean fluorescence
# Method: as §1
# [12] = target: T1, human B7-H3 protein; assay: flow cytometry on A549 cells, PE-labelled goat anti-human secondary antibody, geometric mean fluorescence
# Method: as §1
# [13] = test system: B7-H3-expressing renal cell and bladder carcinoma; settings: Loo et al., 2012; cited from earlier work
# [14] = cynomolgus monkeys; Loo et al., 2012; cited from earlier work
molecule,measurement,setting,value
CC[C@@]1(O)C(=O)OCc2c1cc1n(c2=O)Cc2c-1nc1cc(F)c(C)c3c1c2[C@@H](NC(=O)CO)CC3 [Dxd],EC50,[1],337 nM
same,EC50,[2],7 nM
same,EC50,[3],2 nM
same,EC50,[4],4.7 nM
same,EC50,[5],43.9 nM
"anti-B7-H3 antibody (B7-H3 VA clone) (antibody, V domains shown, IgG/IgG1 appears only as an embodiment; It was detected with a goat anti-human secondary antibody; also called anti-B7H3 VA clone; Sorrento's VA clone) VH: QVQLVQSGAEVKKPGASVKVSCKASGYTFTDSYMHWVRQAPGQGLEWMGWISPRTGGTDYAQKFQGRVTMTRDTSISTAYMELSRLRSDDTAVYYCARGSSRGNDYWGQGTLVTVSS VL: QSVLTQPASVSGSPGQSITISCTGTGSDVGGYNYVSWYQQHPGKAPKLIIYDVTKRPSGFSNRFSGSKSGNTASLTISGLQAEDEADYYCSSYTSRRTYVFGTGTKLTVL",EC50 (read off the curve),[6],~0.2 nM
same,Kd,[6],0.2 nM
same,EC50 (read off the curve),[7],~0.3 nM
same,Kd,[7],0.257 nM
same,EC50 (read off the curve),[8],~0.5 nM
same,Kd,[8],0.485 nM
same,Kd,[9],0.0968 nM
same,Kd,[10],0.238 nM
same,Kd,[11],0.168 nM
same,Kd,[12],0.192 nM
"Enoblituzumab (antibody, chains of the INN, looked up, ""Enoblituzumab (MGA271; from Macrogenics), a humanized mAb targeting B7-H3"") heavy: EVQLVESGGGLVQPGGSLRLSCAASGFTFSSFGMHWVRQAPGKGLEWVAYISSDSSAIYYADTVKGRFTISRDNAKNSLYLQMNSLRDEDTAVYYCGRGRENIYYGSRLDYWGQGTTVTVSSASTKGPSVFPLAPSSKSTSGGTAALGCLVKDYFPEPVTVSWNSGALTSGVHTFPAVLQSSGLYSLSSVVTVPSSSLGTQTYICNVNHKPSNTKVDKRVEPKSCDKTHTCPPCPAPELVGGPSVFLLPPKPKDTLMISRTPEVTCVVVDVSHEDPEVKFNWYVDGVEVHNAKTKPPEEQYNSTLRVVSVLTVLHQDWLNGKEYKCKVSNKALPAPIEKTISKAKGQPREPQVYTLPPSREEMTKNQVSLTCLVKGFYPSDIAVEWESNGQPENNYKTTPLVLDSDGSFFLYSKLTVDKSRWQQGNVFSCSVMHEALHNHYTQKSLSLSPG light: DIQLTQSPSFLSASVGDRVTITCKASQNVDTNVAWYQQKPGKAPKALIYSASYRYSGVPSRFSGSGSGTDFTLTISSLQPEDFATYYCQQYNNYPFTFGQGTKLEIKRTVAAPSVFIFPPSDEQLKSGTASVVCLLNNFYPREAKVQWKVDNALQSGNSQESVTEQDSKDSTYSLSSTLTLSKADYEKHKVYACEVTHQGLSSPVTKSFNRGEC",antitumor activity in xenograft models,[13],potent antitumor activity
same,safety findings in toxicology studies,[14],no significant safety findings
